This is an account of results in patent US20230235054A1 (BIOATLA, published 2023).

Broadly, the Kd is a measure of binding affinity in units of concentration. Lower therefore signals a tighter complex. For orientation: koff means the rate constant with which the complex falls apart. Read a high koff as a short-lived complex. By kon is commonly meant the rate constant with which the complex forms. A low value points to slow association.

The target in one test is T1, cynoNectin4-mFc (cyno, UniProt A0A2K5WES1 32-349).
T1 construct: Immobilized on the SPR chip; also called cyanoNectin4; not shown: mFc (mouse Fc)
T1 sequence: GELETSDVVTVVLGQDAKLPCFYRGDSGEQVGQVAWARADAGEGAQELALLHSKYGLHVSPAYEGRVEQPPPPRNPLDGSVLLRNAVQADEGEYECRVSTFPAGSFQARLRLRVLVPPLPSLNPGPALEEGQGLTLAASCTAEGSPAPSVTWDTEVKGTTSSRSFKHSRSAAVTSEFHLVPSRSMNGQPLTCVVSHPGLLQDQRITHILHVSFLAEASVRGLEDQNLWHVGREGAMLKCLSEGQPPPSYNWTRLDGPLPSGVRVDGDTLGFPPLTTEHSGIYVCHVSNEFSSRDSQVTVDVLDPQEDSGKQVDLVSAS
The experiment in a line: SPR, cynoNectin4-mFc immobilized, pH 7.4. The method, then:
Binding kinetics of anti-Nectin4 antibodies were measured by surface plasmon resonance using a SPR2/4 instrument (Sierra Sensors, Hamburg, Germany) and flat amine sensor chips. The SPR sensor contained four flow cells (FC1-FC4), each of which was addressed individually or in groups. huNectin4-His was immobilized in FC2, and cynoNectin4-mFc in FC4. No protein was immobilized in FC1 and FC3 which were used as control surfaces for FC2 and FC4, respectively.
All injections were done at a flow rate of 25 μL/min at 25° C. The sensor surface was activated with 1-ethyl-3-(3-dimethylaminopropyl)-carbodiimide (EDC) and N-hydroxysuccinimide (NHS) (200 mM/50 mM) for 480 seconds. HuNectin4-His (2 μg/mL in 10 mM NaAc, pH4.5) was injected for 480s and the surface was inactivated by injecting 1M ethanolamine-HCl for 480s. CynoNectin4 was immobilized using the same conditions as described for huNectin4-His, except that the cynoNectin4 was diluted into 10 mM NaAc buffer having pH 5.0. The control surface was activated and deactivated using the same conditions, but without injecting protein. PBST buffer (PBS pH 7.4 with 0.05% TWEEN20™) was used as running buffer for the surface preparation. The running solution was switched to PBST with 30 mM sodium bicarbonate with the pH adjusted as indicated in the figures before the analyte injections. The instrument was equilibrated with the running solution for one hour before the first analyte injection.
The off-rate was measured for 360s. The chip surface was regenerated after each cycle of interaction analysis by injecting 6 μL of 10 mM glycine (pH 2.0). Flow cells 1 and 3 without immobilized protein were used as control surfaces for reference subtraction.

In a further test the target is T2, cyno Nectin-4 on cells (cyno, UniProt A0A2K5WES1 32-510).
T2 construct: whole, on cells; also called HEK293 cells expressing cyno Nectin-4; cyno Nectin-4 cells
T2 sequence: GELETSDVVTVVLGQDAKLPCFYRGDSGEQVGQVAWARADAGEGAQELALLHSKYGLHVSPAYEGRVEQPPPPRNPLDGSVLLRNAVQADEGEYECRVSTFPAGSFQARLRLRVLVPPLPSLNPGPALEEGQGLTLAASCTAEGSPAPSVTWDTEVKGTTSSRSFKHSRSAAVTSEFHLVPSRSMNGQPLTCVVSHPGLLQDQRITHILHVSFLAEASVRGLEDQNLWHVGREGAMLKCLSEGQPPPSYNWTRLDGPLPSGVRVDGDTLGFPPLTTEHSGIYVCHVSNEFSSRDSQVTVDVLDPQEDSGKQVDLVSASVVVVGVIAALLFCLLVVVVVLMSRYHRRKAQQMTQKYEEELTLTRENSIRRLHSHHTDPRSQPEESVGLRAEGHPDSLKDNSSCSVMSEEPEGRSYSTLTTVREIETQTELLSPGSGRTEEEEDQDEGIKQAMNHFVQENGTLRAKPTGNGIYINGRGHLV
The test is described as follows: FACS, HEK293 cells expressing cyno Nectin-4. (In flow cytometry, cells or beads pass a laser one at a time.)

Test [1] addresses T3, recombinant human Nectin4 antigen (human, UniProt Q96NY8 32-349).
T3 construct: construct not described
T3 sequence (looked up): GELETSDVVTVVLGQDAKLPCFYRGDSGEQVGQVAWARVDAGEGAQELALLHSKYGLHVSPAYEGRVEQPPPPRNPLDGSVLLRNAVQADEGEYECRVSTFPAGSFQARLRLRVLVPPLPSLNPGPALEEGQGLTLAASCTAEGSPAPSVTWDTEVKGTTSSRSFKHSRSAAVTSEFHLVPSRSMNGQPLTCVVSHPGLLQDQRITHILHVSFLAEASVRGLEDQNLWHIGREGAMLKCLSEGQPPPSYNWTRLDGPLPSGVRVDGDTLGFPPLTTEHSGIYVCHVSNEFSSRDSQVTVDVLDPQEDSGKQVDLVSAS
The experiment in a line: pH range ELISA, 30 ng/mL, pH of 50% binding activity. The method, then: 1) Coat ELISA plates with 100 μL of 1 μg/mL recombinant human Nectin4 antigen in carbonate-bicarbonate coating buffer [0462] 2) Cover plates with sealing film and incubate overnight at 4° C. […] 3) Decant plates and tap out residual liquid on a stack of paper towels [0464] 4) Wash wells twice by dispensing 200 μL of various pH incubation buffer to the wells and completely aspirate the contents [0465] 5) Add 200 μL of various pH incubation buffers (pH5.5, 6.0, 6.2, 6.5, 6.7, 7.0 and 7.4) to the wells. Cover with sealing film and place the plate onto a plate shaker (set to 200 rpm) for 60 minutes at room temperature [0466] 6) Decant plates and tap out residual liquid on a stack of paper towels [0467] 7) Serially dilute test substances in various pH incubation buffers (pH5.5, 6.0, 6.2, 6.5, 6.7, 7.0 and 7.4) to 30 ng/mL [0468] 8) Add 100 μL/well of diluted test substances to the plates [0469] 9) Cover with sealing film and place the plates onto a plate shaker (set to 200 rpm) for 60 minutes at room temperature. [0470] 10) Decant plates and tap out residual liquid on a stack of paper towels. […] 12) Dilute the HRP secondary antibody at 1:2500 in various pH incubation buffers (pH5.5, 6.0, 6.2, 6.5, 6.7, 7.0 and 7.4) [0473] 13) Add 100 μL HRP secondary antibody diluted in various pH incubation buffers (pH5.5, 6.0, 6.2, 6.5, 6.7, 7.0 and 7.4) to each well. […] 14) Cover with sealing film and place the plates onto a plate shaker (set to 200 rpm) for 60 minutes at room temperature. [0475] 15) Decant plates and tap out residual liquid on a stack of paper towels. […] 16) Wash wells three times by dispensing 200 μL of various pH wash buffer (pH5.5, 6.0, 6.2, 6.5, 6.7, 7.0 and 7.4) to the wells and completely aspirating the contents [0477] 17) Dispense 50 μL per well of the TMB substrate solution into all wells of plates.

B1: BAP-143-wildtype (antibody, V domains shown)
VH: EVQLVESGGGLVQPGGSLRLSCAASGFTFSSYNMNWVRQAPGKGLEWVSYISSSSSTIYYADSVKGRFTISRDNAKNSLSLQMNSLRDEDTAVYYCARAYYYGMDVWGQGTTVTVSS
VL: DIQMTQSPSSVSASVGDRVTITCRASQGISGWLAWYQQKPGKAPKFLIYAASTLQSGVPSRFSGSGSGTDFTLTISSLQPEDFATYYCQQANSFPPTFGGGTKVEIK
notes: 150 kDa used in SPR; also called BAP143-00-00; benchmark (BM)
For the molecule B1, the Kd with cynoNectin4-mFc was determined as 0.244 nM. This lies in the sub-nanomolar range.

B2: BAP-143-06-24-16 (antibody, V domains shown)
VH: EVQLVQSGAEVKKPGATVKISCKVSGFTFSSYNMNWIRQSPSRGLEWLGYISSSSSTIYYADSVKGRFTISRDNSKNTLYLQMNSLRAEDTAVYYCARAYYYGDDVWGQGTLVTVSS
VL: DIQMTQSPSSVSASVGDRVTITCHASQGISGWLAWYQQKPGKAPKFLIYAASTLQSGVPSRFSGSGSGTDFTLTISSLQPEDFATYYCQQANSFPPTFGGGTKVEIK
notes: Used as a conjugate with a linker payload (CAB ADC)
Turning to B2, in the test with cynoNectin4-mFc, binding was put at a Kd of 0.126 nM, the off-rate constant (koff) came out at 8.26e-05 s⁻¹ and the on-rate constant (kon) came to 655000 M⁻¹ s⁻¹. Besides, the “Ratio (pH 7.4/6.0) of EC50” value with cyno Nectin-4 on cells turned out to be 1.4.

B3: BAP-143-06-33-03 (antibody, V domains shown)
VH: QVQLVQSGAEVKKPGASVKVSCKASGFTFSSYNMNWVRQARGQRLEWIGYISSSSSTIYYADSVKGRFTISRDNSKNTLYLQMNSLRAEDTAVYYCARAYYYGMDKWGQGTLVTVSS
VL: DIQMTQSPSSVSASVGDRVTITCRASQGISGWLAWYQQKPGKAPKFLIYAASTLQSGVPSRFSGSGSGTDFTLTISSLQPEDFATYYCQQANSEPPTFGGGTKVEIK
notes: as for B2
Turning to B3, the “Ratio (pH 7.4/6.0) of EC50” value in the test with cyno Nectin-4 on cells came out at 2.7. Further, in test [1], the pH inflection point is 6.85 pH.

B4: BAP-143-00-01 (antibody, V domains shown)
VH: EVQLVESGGGLVQPGGSLRLSCAASGFTFSSYNMNWVRQAPGKGLEWVSYISSSSSTIYYADSVKGRFTISRDNAKNSLSLQMNSLRDEDTAVYYCARAYYYGMDVWGQGTTVTVSS
VL: DIQMTQSPSSVSASVGDRVTITCRASQGISGWEAWYQQKPGKAPKFLIYAASTLQSGVPSRFSGSGSGTDFTLTISSLQPEDFATYYCQQANSFPPTFGGGTKVEIK
notes: as for B2
In the test with cynoNectin4-mFc, B4 had a dissociation constant (Kd) of 3.25 nM, an off-rate (koff) of 0.000781 s⁻¹ and an on-rate constant (kon) of 240000 M⁻¹ s⁻¹. In addition, the “Ratio (pH 7.4/6.0) of EC50” value with cyno Nectin-4 on cells was 2. Besides, the pH inflection point in test [1] was found to be 6.58 pH.

B5: BAP-143-07-03-12 (antibody, V domains shown)
VH: EVQLVESGGGLVQPGGSLRLSCAASGFTFSSYNMNWVRQAPGKGLEWVSYISSSSSTIYYADSVKGRFTISRDNAKNSLSLQMNSLRDEDTAVYYCARAYYYGMDKWGQGTTVTVSS
VL: DIQMTQSPSSVSASVGDRVTITCRASQGISGWEAWYQQKPGKAPKFLIYAASTLQSGVPSRFSGSGSGTDFTLTISSLQPEDFATYYCQQANSFPPTFGGGTKVEIK
notes: as for B2
For B5, in the test with cynoNectin4-mFc, the affinity, expressed as Kd, was 1.85 nM; the koff turned out to be 0.000651 s⁻¹; the association rate constant (kon) was determined as 352000 M⁻¹ s⁻¹. Also, in the test with cyno Nectin-4 on cells, the “Ratio (pH 7.4/6.0) of EC50” value amounted to 1.8. For the same molecule, in test [1], the pH inflection point was 6.51 pH.

B6: BAP-143-06-33-16 (antibody, V domains shown)
VH: EVQLVQSGAEVKKPGATVKISCKVSGFTFSSYNMNWIRQSPSRGLEWLGYISSSSSTIYYADSVKGRFTISRDNSKNTLYLQMNSLRAEDTAVYYCARAYYYGDDVWGQGTLVTVSS
VL: DIQMTQSPSSVSASVGDRVTITCRASQGISGWEAWYQQKPGKAPKFLIYAASTLQSGVPSRFSGSGSGTDFTLTISSLQPEDFATYYCQQANSFPPTFGGGTKVEIK
notes: as for B2
In the test with cynoNectin4-mFc, B6 yielded a Kd of 2.37 nM, an off-rate (koff) of 0.000175 s⁻¹ and an association rate constant (kon) of 73900 M⁻¹ s⁻¹. The “Ratio (pH 7.4/6.0) of EC50” value in the test with cyno Nectin-4 on cells was 1.5. In addition, the pH inflection point in test [1] stood at 6.6 pH.
